IntAct's records for PubMed 25574826

B1: Lon protease homolog, mitochondrial (Homo sapiens), P36776-1 (parent)
chain: MAASTGYVRLWGAARCWVLRRPMLAAAGGRVPTAAGAWLLRGQRTCDASPPWALWGRGPAIGGQWRGFWEASSRGGGAFSGGEDASEGGAEEGAGGAGGSAGAGEGPVITALTPMTIPDVFPHLPLIAITRNPVFPRFIKIIEVKNKKLVELLRRKVRLAQPYVGVFLKRDDSNESDVVESLDEIYHTGTFAQIHEMQDLGDKLRMIVMGHRRVHISRQLEVEPEEPEAENKHKPRRKSKRGKKEAEDELSARHPAELAMEPTPELPAEVLMVEVENVVHEDFQVTEEVKALTAEIVKTIRDIIALNPLYRESVLQMMQAGQRVVDNPIYLSDMGAALTGAESHELQDVLEETNIPKRLYKALSLLKKEFELSKLQQRLGREVEEKIKQTHRKYLLQEQLKIIKKELGLEKDDKDAIEEKFRERLKELVVPKHVMDVVDEELSKLGLLDNHSSEFNVTRNYLDWLTSIPWGKYSNENLDLARAQAVLEEDHYGMEDVKKRILEFIAVSQLRGSTQGKILCFYGPPGVGKTSIARSIARALNREYFRFSVGGMTDVAEIKGHRRTYVGAMPGKIIQCLKKTKTENPLILIDEVDKIGRGYQGDPSSALLELLDPEQNANFLDHYLDVPVDLSKVLFICTANVTDTIPEPLRDRMEMINVSGYVAQEKLAIAERYLVPQARALCGLDESKAKLSSDVLTLLIKQYCRESGVRNLQKQVEKVLRKSAYKIVSGEAESVEVTPENLQDFVGKPVFTVERMYDVTPPGVVMGLAWTAMGGSTLFVETSLRRPQDKDAKGDKDGSLEVTGQLGEVMKESARIAYTFARAFLMQHAPANDYLVTSHIHLHVPEGATPKDGPSAGCTIVTALLSLAMGRPVRQNLAMTGEVSLTGKILPVGGIKEKTIAAKRAGVTCIVLPAENKKDFYDLAAFITEGLEVHFVEHYREIFDIAFPDEQAEALAVER
partner: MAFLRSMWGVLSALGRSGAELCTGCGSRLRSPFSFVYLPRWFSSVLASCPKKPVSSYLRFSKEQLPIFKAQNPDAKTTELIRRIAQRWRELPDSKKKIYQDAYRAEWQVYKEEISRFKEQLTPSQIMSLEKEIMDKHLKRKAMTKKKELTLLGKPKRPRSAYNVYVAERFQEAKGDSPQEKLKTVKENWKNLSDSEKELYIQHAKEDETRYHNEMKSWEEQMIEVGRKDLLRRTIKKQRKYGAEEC

Variants of: B1
Conditions: with tfam_human TFAM

effect of a mutation on the interaction | Variant
with no effect | R721G
with no effect | P676S
